In US20160311887A1 (CAMBRIDGE ENTERPRISE, published 2016):
Changes are numbered by the printed parent chain. Numbers in names are those of the source.

B1: FL α1AT Pitts C232S P2KP1′N (other)
chain: SDPQGDAAQKTDTSHHDQDHPTFNKITPNLAEFAFSLYRQLAHQSNSTNIFFSPVSIATAFAMLSLGTKADTHDEILEGLNFNLTEIPEAQIHEGFQELLRTLNQPDSQLQLTTGNGLFLSEGLKLVDKFLEDVKKLYHSEAFTVNFGDTEEAKKQINDYVEKGTQGKIVDLVKELDRDTVFALVNYIFFKGKWERPFEVKDTEEEDFHVDQVTTVKVPMMKRLGMFNIQHSKKLSSWVLLMKYLGNATAIFFLPDEGKLQHLENELTHDIITKFLENEDRRSASLHLPKLSITGTYDLKSVLGQLGITKVFSNGADLSGVTEEAPLKLSKAVHKAVLTIDEKGTEAAGAMFLEAIKRNIPPEVKFNKPFVFLMIEQNTKSPLFMGKVVNPTQK
notes: E. coli, purified; also called 3.B2; 2.H5
B2: FL α1AT Pitts C232S P2QP1′K (other)
chain: B1 chain with K357Q, N359K
notes: E. coli, purified; also called 4.G4
B3: FL α1AT Pitts C232S P2R (other)
chain: B1 chain with K357R, N359S
notes: E. coli, purified; also called P2.F10; P2.G8
B4: FL α1AT Pitts C232S P2KP1′H (other)
chain: B1 chain with N359H
notes: E. coli, purified; also called 1.A12
B5: α1AT Pitts (P1R) mutant P2WP1′H (other)
chain: B1 chain with K357W, N359H
B6: α1AT Pitts (P1R) mutant P2RP1′A (other)
chain: B1 chain with K357R, N359A
notes: also called 3.E5
B7: FL α1AT Pitts C232S P2K (other)
chain: B1 chain with N359S
notes: E. coli, SUMO tag removed; also called P2K α1AT Pitts; P2.G11
B8: FL α1AT Pitts C232S P1′K (other)
chain: B1 chain with K357P, N359K
notes: E. coli, SUMO tag removed; also called P1′K α1AT Pitts; P1′.F9
B9: A22 2.B10 PCI (P4SP2LP1′K) (other)
chain: APSSRRDFTFDLYRALASAAPSQNIFFSPVSISMSLAMLSLGAGSSTKMQILEGLGLNLQKSSEKELHRGFQQLLQELNQPRDGFQLSLGNALFTDLVVDLQDTFVSAMKTLYLADTFPTNFRDSAGAMKQINDYVAKQTKGKIVDLLKNLDSNAVVIMVNYIFFKAKWETSFNHKGTQEQDFYVTSETVVRVPMMSREDQYHYLLDRNLSCRVVGVPYQGNATALFILPSEGKMQQVENGLSEKTLRKWLKMFKKRQLELYLPKFSIEGSYQLEKVLPSLGISNVFTSHADLSGISNHSNIQVSEMVHKAVVEVDESGTRAAAATGTISTLRKARLNSQRLVFNRPFLMFIVDNNILFLGKVNRP
notes: As A22 WT PCI
B10: A22 4.H11 PCI (P4KP2RP1′H) (other)
chain: B9 chain with S330K, L332R, K334H
notes: As A22 WT PCI
B11: A22 5.E12 PCI (P4HP2RP1′V) (other)
chain: B9 chain with S330H, L332R, K334V
notes: As A22 WT PCI
B12: A22 D8 PCI (P4QP2RP1′N) (other)
chain: B9 chain with S330Q, L332R, K334N
notes: As A22 WT PCI
B13: FL α1AT Pitts C232S P2TP1′N (other)
chain: B1 chain with K357T
notes: E. coli, purified; also called 4.G9
B14: FL α1AT Pitts C232S P1′R (other)
chain: B1 chain with K357P, N359R
notes: E. coli, purified; also called P1′.A11
B15: FL α1AT Pitts C232S P1′E (other)
chain: B1 chain with K357P, N359E
notes: E. coli, purified; also called P1′.H8; P1′.F10
B16: FL α1AT Pitts C232S P2TP1′Y (other)
chain: B1 chain with K357T, N359Y
notes: E. coli, purified; also called 3.A10
B17: FL α1AT Pitts C232S P2RP1′C (other)
chain: B1 chain with K357R, N359C
notes: E. coli, purified; also called 1.B11

Target: TF:fVIIa (UniProt P13726 33-295; P08709 61-466, limits assumed)
Test: cell-based or functional assay

TF:fVIIa, sequence (P13726 33-295 limits assumed, chain 1 of 2): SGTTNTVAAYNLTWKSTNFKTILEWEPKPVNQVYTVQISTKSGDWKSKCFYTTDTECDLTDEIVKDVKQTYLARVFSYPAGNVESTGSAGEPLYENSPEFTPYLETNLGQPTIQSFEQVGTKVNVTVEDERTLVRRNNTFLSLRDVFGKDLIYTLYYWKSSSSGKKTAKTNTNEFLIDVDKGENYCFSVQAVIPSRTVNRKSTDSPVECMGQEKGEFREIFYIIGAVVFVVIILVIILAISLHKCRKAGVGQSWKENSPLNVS
TF:fVIIa, sequence (P08709 61-466 limits assumed, chain 2 of 2): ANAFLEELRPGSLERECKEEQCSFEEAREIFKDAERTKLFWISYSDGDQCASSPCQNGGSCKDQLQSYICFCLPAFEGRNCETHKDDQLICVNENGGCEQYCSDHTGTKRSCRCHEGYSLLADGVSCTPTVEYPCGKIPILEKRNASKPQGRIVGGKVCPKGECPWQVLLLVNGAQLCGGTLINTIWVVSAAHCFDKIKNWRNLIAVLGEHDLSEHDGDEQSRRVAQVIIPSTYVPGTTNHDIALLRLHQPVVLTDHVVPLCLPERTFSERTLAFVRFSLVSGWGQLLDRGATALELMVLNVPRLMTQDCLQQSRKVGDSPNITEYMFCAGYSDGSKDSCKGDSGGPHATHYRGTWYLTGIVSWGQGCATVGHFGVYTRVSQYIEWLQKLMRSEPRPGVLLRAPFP

| PT (s), 5 µM serpin | Binder |
| --- | --- |
| 27.8 s | B1 |
| 27.9 s | B2 |
| 27.8 s | B3 |
| 27.4 s | B4 |

Target: T1, fXa (UniProt P00742 41-179; P00742 235-488)
T1 construct: also called factor Xa
Test: single-concentration estimate (FIG. 15)
Method: 1 μM serpin was incubated with 12.5 nM protease for different amounts of time. At the indicated timepoints, the reaction was stopped by addition of an excess of chromogenic substrate (S2238 for thrombin, S2222 for fXa). The residual enzyme activity was divided by the initial enzyme activity and the natural log of this value plotted against time. The slope of these plots is the observed rate constant, kobs. To obtain an estimate of the second-order rate constant k₂, kobs was divided by the serpin concentration. […] The mutants shown all have the Pitts (M358R, P1R) mutation.
Four additional mutants were identified from this additional screen. These all had the P1R mutation and in addition had either P2RP1′A, P2RP1′Q, P2WP1′I or P2WP1′H. To verify the specificity of these mutants, an initial experiment was performed, using only one concentration of serpin and testing its inhibition of thrombin and fXa. APC inhibition was not considered at this stage, because mutants were selected based on their low inhibition of thrombin and fXa. Serpin and protease were incubated for different times and at the indicated timepoints, the reaction was stopped by addition of an excess of chromogenic substrate. Residual protease activity was divided by the initial protease activity and the natural log of this value plotted against time (FIG. 15). The slope of this line divided by the serpin concentration gives an estimate of the second-order rate constant of inhibition.

T1 sequence (P00742 41-179 limits assumed, form in doubt, chain 1 of 2): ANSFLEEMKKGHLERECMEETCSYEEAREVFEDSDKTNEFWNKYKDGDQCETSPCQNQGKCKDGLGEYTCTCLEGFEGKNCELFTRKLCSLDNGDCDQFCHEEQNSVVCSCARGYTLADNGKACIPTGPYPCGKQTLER
T1 sequence (P00742 235-488 limits assumed, form in doubt, chain 2 of 2): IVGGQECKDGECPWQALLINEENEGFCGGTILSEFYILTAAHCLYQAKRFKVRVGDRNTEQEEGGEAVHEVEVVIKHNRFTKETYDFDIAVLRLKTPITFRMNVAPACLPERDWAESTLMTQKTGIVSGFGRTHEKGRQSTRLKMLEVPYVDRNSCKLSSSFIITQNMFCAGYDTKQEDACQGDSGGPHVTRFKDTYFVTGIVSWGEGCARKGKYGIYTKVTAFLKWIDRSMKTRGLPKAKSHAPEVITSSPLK

| fold reduction of the second-order rate constant compared to FL α1AT Pitts C232S | Binder |
| --- | --- |
| ~10 fold | B5 |
| ~10 fold | B6 |

Target: T2, activated Protein C (APC) (human, UniProt P04070 43-197; P04070 212-461)
T2 construct: also called human plasma APC
Test: ratio of rate constants, APC over fXa
Method: (§1) The inhibition of APC was reduced but still considerable, especially for the variants of α₁AT and the PCI variants in the presence of heparin. However, the specificity of PCI and α₁AT Pitts is not limited to thrombin and APC. […] In order not to inhibit coagulation, our variants also need to be specific for APC over fXa. We therefore also determined the rate constants of inhibition of PCI and α₁AT and their variants for fXa (Table 3). Rate constants were measured under pseudo-first-order conditions using an excess of serpin over protease. Serpin and protease were incubated together for varying lengths of time and the residual activity determined by adding an excess of chromogenic substrate (S2222) for the protease. Plots of residual protease activity over time gave the observed rate constant kobs. The second-order rate constant, k₂, is the slope of the plot of kobs versus serpin concentration (fitted using a linear regression model). Standard errors of the slope are shown (Table 3).

T2 sequence (P04070 43-197, chain 1 of 2): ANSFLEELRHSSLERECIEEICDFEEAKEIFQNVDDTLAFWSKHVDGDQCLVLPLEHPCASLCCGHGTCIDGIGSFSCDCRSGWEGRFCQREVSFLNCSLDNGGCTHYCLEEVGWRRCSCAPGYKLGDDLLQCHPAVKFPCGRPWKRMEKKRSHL
T2 sequence (P04070 212-461, chain 2 of 2): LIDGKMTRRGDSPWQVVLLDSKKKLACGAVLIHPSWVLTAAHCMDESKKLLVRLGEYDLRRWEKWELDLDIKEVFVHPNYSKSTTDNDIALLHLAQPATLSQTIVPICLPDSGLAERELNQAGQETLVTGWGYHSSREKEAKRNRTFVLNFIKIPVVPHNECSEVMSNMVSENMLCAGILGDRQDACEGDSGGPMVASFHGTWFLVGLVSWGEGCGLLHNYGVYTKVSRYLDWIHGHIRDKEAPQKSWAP

| fold inhibition APC/fXa | Binder |
| --- | --- |
| 16.5 fold | B7 |
| 19.6 fold | B8 |

Target: T2, activated Protein C (APC)
Test: ratio of rate constants, APC over fXa
Remark: another data set of the same source

| inhibition of APC/fXa | Binder |
| --- | --- |
| 41.5 fold | B1 |
| 30.9 fold | B2 |
| 12.8 fold | B3 |
| 46.5 fold | B4 |

Target: T2, activated Protein C (APC)
Test: ratio of rate constants, APC over thrombin
Method: (§2) Rate constants of thrombin and APC inhibition were measured under pseudo-first-order conditions using an excess of serpin over protease (Table 1). Serpin and protease were incubated together for varying lengths of time and the residual activity was determined by adding an excess of chromogenic substrate for the protease (S2238 for thrombin and […] for APC). Residual protease activity was then measured by following the absorbance at 405 nm. Plots of residual protease activity over time gave the observed rate constant kobs. The second-order rate constant, ₖ₂, is the slope of the plot of kobs versus serpin concentration (fitted using a linear regression model). Standard errors of the slope are shown.

| fold inhibition APC/thrombin | Binder |
| --- | --- |
| 1270 fold | B7 |
| 563 fold | B8 |

Target: T2, activated Protein C (APC)
Test: ratio of rate constants, APC over thrombin
Remark: another data set of the same source
Method: Standard errors are shown.
(§3) Preliminary second-order rate constants for the inhibition of thrombin and APC by random mutagenesis PCI variants were measured under pseudo first-order conditions using an excess of serpin over protease. Serpin and protease were incubated together for varying lengths of time and the residual activity determined by adding an excess of chromogenic substrate for the protease. Plots of residual protease activity over time gave the observed rate constant kobs. The second-order rate constant, k₂, is the slope of the plot of kobs versus serpin concentration (fitted using a linear regression model). WT and P2KP1′K are shown for comparison. The error shown is the standard error of the slope.

| inhibition of APC/thrombin | Binder |
| --- | --- |
| 26.9 fold | B9 |
| 21.4 fold | B10 |
| 11.3 fold | B11 |
| 11.9 fold | B12 |

Target: T2, activated Protein C (APC)
Test: ratio of rate constants, APC over thrombin
Remark: another data set of the same source

| inhibition of APC/thrombin | Binder |
| --- | --- |
| 231 fold | B13 |
| 194 fold | B14 |
| 19.9 fold | B15 |
| 248 fold | B16 |
| 2520 fold | B1 |
| 722 fold | B17 |
| 8790 fold | B2 |
| 1460 fold | B3 |

Target: T3, thrombin (UniProt P00734 328-622)
Test: pseudo-first-order inhibition kinetics, residual chromogenic activity
Method: as §2

| second-order rate constant of inhibition | Binder |
| --- | --- |
| 51 M⁻¹ s⁻¹ | B7 |
| 170 M⁻¹ s⁻¹ | B8 |

Target: T2, activated Protein C (APC)
Test: as above
Method: as §2

| second-order rate constant of inhibition | Binder |
| --- | --- |
| 64800 M⁻¹ s⁻¹ | B7 |
| 95700 M⁻¹ s⁻¹ | B8 |

Target: T3, thrombin
Test: as above
Remark: another data set of the same source

| second-order rate constant of inhibition | Binder |
| --- | --- |
| 270 M⁻¹ s⁻¹ | B13 |
| 680 M⁻¹ s⁻¹ | B14 |
| 150 M⁻¹ s⁻¹ | B15 |
| 23 M⁻¹ s⁻¹ | B16 |
| 15 M⁻¹ s⁻¹ | B1 |
| 34 M⁻¹ s⁻¹ | B17 |
| 3.8 M⁻¹ s⁻¹ | B2 |
| 42 M⁻¹ s⁻¹ | B3 |

Target: T2, activated Protein C (APC)
Test: as above
Remark: another data set of the same source

| second-order rate constant of inhibition | Binder |
| --- | --- |
| 62400 M⁻¹ s⁻¹ | B13 |
| 132000 M⁻¹ s⁻¹ | B14 |
| 2990 M⁻¹ s⁻¹ | B15 |
| 5700 M⁻¹ s⁻¹ | B16 |
| 37800 M⁻¹ s⁻¹ | B1 |
| 24600 M⁻¹ s⁻¹ | B17 |
| 33400 M⁻¹ s⁻¹ | B2 |
| 61100 M⁻¹ s⁻¹ | B3 |
| 28800 M⁻¹ s⁻¹ | B4 |

Target: T1, fXa
Test: pseudo-first-order inhibition kinetics, residual chromogenic activity (S2222)
Method: as §1

| second-order rate constant of inhibition | Binder |
| --- | --- |
| 3930 M⁻¹ s⁻¹ | B7 |
| 4890 M⁻¹ s⁻¹ | B8 |

Target: T1, fXa
Test: as above
Remark: another data set of the same source

| second-order rate constant of inhibition | Binder |
| --- | --- |
| 910 M⁻¹ s⁻¹ | B1 |
| 1080 M⁻¹ s⁻¹ | B2 |
| 4790 M⁻¹ s⁻¹ | B3 |
| 620 M⁻¹ s⁻¹ | B4 |

Target: T3, thrombin
Test: preliminary pseudo-first-order inhibition kinetics, residual chromogenic activity
Method: as §3

| second-order rate constant of inhibition | Binder |
| --- | --- |
| 16 M⁻¹ s⁻¹ | B9 |
| 21 M⁻¹ s⁻¹ | B10 |
| 23 M⁻¹ s⁻¹ | B11 |
| 84 M⁻¹ s⁻¹ | B12 |

Target: T2, activated Protein C (APC)
Test: as above
Method: as §3

| second-order rate constant of inhibition | Binder |
| --- | --- |
| 430 M⁻¹ s⁻¹ | B9 |
| 450 M⁻¹ s⁻¹ | B10 |
| 260 M⁻¹ s⁻¹ | B11 |
| 1000 M⁻¹ s⁻¹ | B12 |
